Measurements: paper doi:10.1101/2022.10.10.511578 (bioRxiv, 2022)
Values belong to the binder of their own block, whether it stands above or below them. No end group written: not given here.

Key:
[1] = target: T1, arrestin2^1-418 (C150L, C242V, C251V, C269S) (human); experiment: SEC
T1 chain: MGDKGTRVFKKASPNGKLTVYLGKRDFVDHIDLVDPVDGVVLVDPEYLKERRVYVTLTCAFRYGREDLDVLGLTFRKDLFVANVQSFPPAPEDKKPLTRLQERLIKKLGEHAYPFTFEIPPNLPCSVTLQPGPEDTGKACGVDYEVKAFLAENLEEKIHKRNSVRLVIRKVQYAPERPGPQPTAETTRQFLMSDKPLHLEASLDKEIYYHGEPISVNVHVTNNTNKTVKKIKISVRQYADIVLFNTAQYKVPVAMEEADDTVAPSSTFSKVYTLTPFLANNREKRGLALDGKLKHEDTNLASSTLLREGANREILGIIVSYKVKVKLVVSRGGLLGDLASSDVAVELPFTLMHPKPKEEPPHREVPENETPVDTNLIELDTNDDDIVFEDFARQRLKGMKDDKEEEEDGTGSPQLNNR

[2] = target: T2, arrestin2^1-393 (human); experiment: NMR titration
T2 chain: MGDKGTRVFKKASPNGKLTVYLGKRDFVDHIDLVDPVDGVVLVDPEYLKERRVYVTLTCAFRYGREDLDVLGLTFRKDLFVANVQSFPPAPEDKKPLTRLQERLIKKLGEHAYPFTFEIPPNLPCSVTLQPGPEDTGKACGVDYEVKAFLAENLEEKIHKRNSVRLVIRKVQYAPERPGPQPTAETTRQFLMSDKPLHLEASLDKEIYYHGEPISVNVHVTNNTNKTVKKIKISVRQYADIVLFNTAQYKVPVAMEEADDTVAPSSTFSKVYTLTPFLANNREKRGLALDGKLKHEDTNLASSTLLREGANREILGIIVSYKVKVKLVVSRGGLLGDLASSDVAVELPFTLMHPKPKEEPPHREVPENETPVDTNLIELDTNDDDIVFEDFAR

[3] = target: T3, arrestin2^1-359 (human); experiment: crystal structure
T3 chain: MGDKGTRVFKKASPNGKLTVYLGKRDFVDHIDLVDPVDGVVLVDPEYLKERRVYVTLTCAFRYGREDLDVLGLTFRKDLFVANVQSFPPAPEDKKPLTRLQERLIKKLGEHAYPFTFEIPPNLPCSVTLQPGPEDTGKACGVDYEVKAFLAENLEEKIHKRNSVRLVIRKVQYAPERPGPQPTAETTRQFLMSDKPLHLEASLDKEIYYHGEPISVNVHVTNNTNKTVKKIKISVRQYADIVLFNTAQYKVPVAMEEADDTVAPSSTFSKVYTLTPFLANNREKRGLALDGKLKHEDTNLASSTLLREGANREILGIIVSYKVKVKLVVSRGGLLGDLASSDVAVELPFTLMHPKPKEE

B2: CCR5 3P1 phosphopeptide (peptide)
peptide: APERASSVYTRSTGEQEISVGL
modifications: also: three-fold phosphorylated, sites not given here
Kd [2]: > 100 µM

B3: CCR5 4P phosphopeptide (peptide)
peptide: APERASSVYTRSTGEQEISVGL
modifications: also: phosphopeptide (4P), sites not given here
Kd [2]: > 100 µM
binding result [3]: binds

B4: CCR5 5P1 phosphopeptide (peptide)
peptide: APERASSVYTRSTGEQEISVGL
modifications: also: five-fold phosphorylated, lacking pT343, sites not given here
Kd [2]: 147 ± 7 µM

More lines, now with the values ahead:

binding result [1]: binds
Kd [2]: > 100 µM
fold lower affinity (than 6P or V2Rpp) [2]: > 4 fold
B1: CCR5 3P2 phosphopeptide (peptide)
peptide: APERASSVYTRSTGEQEISVGL
modifications: also: phosphopeptide (3P2), sites not given here

Kd [2]: 54 ± 6 µM
B5: CCR5 5P2 phosphopeptide (peptide)
peptide: APERASSVYTRSTGEQEISVGL
modifications: not fully specified; five-fold phosphorylated; comprising pT343; whole pattern in Figure 1C

binding result [1]: binds
Kd [2]: 45 ± 6 µM
binding result [3]: binds
B6: CCR5 6P phosphopeptide (peptide)
peptide: APERASSVYTRSTGEQEISVGL
modifications: also: phosphopeptide (6P), sites not given here
